B1: Azoarcus group I ribozyme (parent)
chain: GUGCCUUGCGCCGGGAAACCACGCAAGGGAUGGUGUCAAAUUCGGCGAAACCUAAGCGCCCGCCCGGGCGUAUGGCAACGCCGAGCCAAGCUUCGGCGCCUGCGCCGAUGAAGGUGUAGAGACUAGACGGCACCCACCUAAGGCAAACGCUAUGGUGAAGGCAUAGUCCAGGGAGUGGCGAAAGUCACACAAACCGG

Variants of B1 are the subject of the data set. Description: reverse-splicing fitness (ratio to wild type); higher = more active; in vitro selection; Mg2+ level not given. In short, it runs like this:
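An in vitro group I ribozyme library with randomized positions was T7-transcribed and gel-purified. In triplicate, 10 pmol RNA in EPPS pH 7.5 was reacted with 50 pmoles of a 30-nt RNA substrate for 1 h at 37 °C across several added MgCl2 levels (1–48 mM), then stopped with EDTA. Products were reverse transcribed from a substrate-complementary primer, PCR-amplified and sequenced (HiSeq 4000). Fitness is a variant's read proportion after selection over that before, normalised to wild type.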
For C82U A111U A120C C150U C169U U176A, the reverse-splicing fitness was determined as 0.0177. The same measure for C82U A111U A120C C150U C169U U176C: 0.0157; for C82U A111U A120C C150U C169U U176G: 0.00524. As to C82U A111U A120C C150U C169A, the reverse-splicing fitness is 0.00987. As for C82U A111U A120C C150U C169U, the reverse-splicing fitness came to 0.0134.

With C82U A111U A120C C150U C169G, the reverse-splicing fitness amounted to 0.00829. C82U A111U A120C A145U C150U C169G: the reverse-splicing fitness amounted to 0.00796. For C82U A111U A120C A145U C150U C169A, the reverse-splicing fitness worked out at 0.00828. With C82U A111U A120C A145U C150U C169U, the reverse-splicing fitness came to 0.0101. Turning to C82U A111U A120C A145U C150A C169G U176A, the reverse-splicing fitness stood at 0.0124. Then C82U A111U A120C A145U C150A C169G U176C, with 0.0124; and C82U A111U A120C A145U C150A C169G U176G, with 0.00527.

For C82U A111U A120C A145G C150G C169G U176C, the reverse-splicing fitness was 0.0112. As for C82U A111U A120C A145G C150G C169G U176G, the reverse-splicing fitness is 0.00574. Turning to C82U A111U A120C A145G C150G C169G U176A, the reverse-splicing fitness was determined as 0.00984. Take C82U A111G C150G C169A U176G: the reverse-splicing fitness was determined as 0.00562.

With C82U A111G C150G C169A U176A, the reverse-splicing fitness worked out at 0.00962.

Regarding C82U A111G C150G C169A U176C, the reverse-splicing fitness was 0.0121. With C82U A111U A120C A145G C150A C169G U176G, the reverse-splicing fitness is 0.00516. As for C82U A111U A120C A145G C150A C169G U176C, the reverse-splicing fitness is 0.0229.

For the variant C82U A111U A120C A145G C150A C169G U176A, the reverse-splicing fitness is 0.0169. As for C82U A111U A120C A145C C150U C169U U176A, the reverse-splicing fitness amounted to 0.015. For the variant C82U A111U A120C A145C C150U C169U U176C, the reverse-splicing fitness stood at 0.0108. The same measure for C82U A111U A120C A145C C150U C169U U176G: 0.00464. For C82U A111G C150G U176C, the reverse-splicing fitness was found to be 0.0178. With C82U A111G C150G U176A, the reverse-splicing fitness was determined as 0.00888. For C82U A111G C150G U176G, the reverse-splicing fitness amounted to 0.00391. The same measure for C82U A111U A120C A145G U176A: 0.0152; for C82U A111U A120C A145G U176G: 0.00517. Then C82U A111U A120C A145G U176C, with 0.0219. As for C82U A111G C169A U176C, the reverse-splicing fitness is 0.0146. Turning to C82U A111G C169A U176A, the reverse-splicing fitness is 0.0124.

As for C82U A111G C169A U176G, the reverse-splicing fitness was 0.00438. The same measure for C82U A111U A120C U176G: 0.00482. For C82U A111U A120C U176A, the reverse-splicing fitness came out at 0.0144. Consider C82U A111U A120C U176C, for which the reverse-splicing fitness was 0.0191.

Take C82U A111U A120C A145U C150G C169G: the reverse-splicing fitness amounted to 0.00651. As to C82U A111U A120C A145U C150G C169U, the reverse-splicing fitness was found to be 0.00819. The same measure for C82U A111U A120C A145U C150G C169A: 0.00868; for C82U A111U A120C A145G C150U C169U U176A: 0.0159. For the variant C82U A111U A120C A145G C150U C169U U176G, the reverse-splicing fitness turned out to be 0.00474. Regarding C82U A111U A120C A145G C150U C169U U176C, the reverse-splicing fitness came to 0.0155. For the variant C82U A111U A120C A145G C169A U176A, the reverse-splicing fitness was determined as 0.0202. Regarding C82U A111U A120C A145G C169A U176C, the reverse-splicing fitness amounted to 0.0232.

On to C82U A111U A120C A145G C169A U176G, for which the reverse-splicing fitness is 0.00456.

As for C82U A111U A120C C150G C169A U176C, the reverse-splicing fitness worked out at 0.0101. For C82U A111U A120C C150G C169A U176G, the reverse-splicing fitness stood at 0.00603. As for C82U A111U A120C C150G C169A U176A, the reverse-splicing fitness is 0.0105. On to C82U A111U A120C C150A C169U U176A, for which the reverse-splicing fitness came out at 0.0229.

Take C82U A111U A120C C150A C169U U176C: the reverse-splicing fitness came to 0.0203. As for C82U A111U A120C C150A C169U U176G, the reverse-splicing fitness turned out to be 0.00688.

As for C82U A111U A120C A145G C150U C169G, the reverse-splicing fitness came out at 0.00811.

In the case of C82U A111U A120C A145G C150U C169U, the reverse-splicing fitness stood at 0.0108. As for C82U A111U A120C A145G C150U C169A, the reverse-splicing fitness is 0.00982. For the variant C82U A111G C150G C169A, the reverse-splicing fitness stood at 0.00812. Take C82U A111G C150G C169U: the reverse-splicing fitness turned out to be 0.00811. The same measure for C82U A111G C150G C169G: 0.00675; for C82U A111U A120C: 0.0288. In the case of C82U A111U A120G, the reverse-splicing fitness is 0.0168. The same measure for C82U A111U A120C A145C C150A C169U U176G: 0.00541; for C82U A111U A120C A145C C150A C169U U176A: 0.0149. In the case of C82U A111U A120C A145C C150A C169U U176C, the reverse-splicing fitness came to 0.0112. As to C82U A111U A120C C150U C169G U176G, the reverse-splicing fitness worked out at 0.00509. Then C82U A111U A120C C150U C169G U176A, with 0.0138; and C82U A111U A120C C150U C169G U176C, with 0.0147; and C82U A111U A120C A145C C150A C169G U176C, with 0.0108. Consider C82U A111U A120C A145C C150A C169G U176A, for which the reverse-splicing fitness is 0.0195. In the case of C82U A111U A120C A145C C150A C169G U176G, the reverse-splicing fitness came to 0.00543. The same measure for C82U A111U A120C A145G C150A C169U: 0.0104; for C82U A111U A120C A145G C150A C169G: 0.00791. The same measure for C82U A111U A120C A145G C150A C169A: 0.0103. The same measure for C82U A111U A120C C150A C169U: 0.0114; for C82U A111U A120C C150A C169G: 0.0083. Turning to C82U A111U A120C C150A C169A, the reverse-splicing fitness came out at 0.00966.

In the case of C82U A111U A120C A145U C150G, the reverse-splicing fitness is 0.0076. As to C82U A111U A120C A145U C150U, the reverse-splicing fitness came out at 0.0196. In the case of C82U A111U A120C A145U C150A, the reverse-splicing fitness is 0.00878.

On to C82U A111G C150U C169A U176C, for which the reverse-splicing fitness is 0.0135. For the variant C82U A111G C150U C169A U176A, the reverse-splicing fitness was determined as 0.0145.

As to C82U A111G C150U C169A U176G, the reverse-splicing fitness was found to be 0.00543. Take C82U A111U A120C A145C C150U C169G U176C: the reverse-splicing fitness is 0.00936. On to C82U A111U A120C A145C C150U C169G U176G, for which the reverse-splicing fitness amounted to 0.00538. For the variant C82U A111U A120C A145C C150U C169G U176A, the reverse-splicing fitness was 0.0175.

For the origin of these results see the RNAGym collection of RNA variant scans (doi:10.1093/molbev/msab373).
